Data taken from patent US20060257938A1, “Method of screening for drugs that block ligand binding to a lipid binding protein” (priority 2005, published 2006).
Where a chain is given by its changes, count along the chain named. Names and notes keep the numbering of the source. Values joined by “and” are separate entries in the source; they are usually repeats but may differ in a detail not shown here. Equal entries are not always repeated.

B1: 38Y 74F 72A (protein, listed as Rattus norvegicus)
chain: AFDGTWKVDRNENYEKFMEKMGINVVKRKLGAHDNLKYTITQEGNKFTVKESSNFRNIDVVFELGVDFAYSAAFGTELTGTWTMEGNKLVGKFKRVDNGKELIAVREISGNELIQTYTYEGVEAKRIFKKE
modifications: PEPTIDE (1)...(131) wild-type rat intestinal fatty acid binding protein
B2: 72S 73W 74N (protein, listed as Rattus norvegicus)
chain: B1 chain with Y38L, A72S, A73W, F74N
modifications: PEPTIDE (1)...(131) wild-type rat intestinal fatty acid binding protein
B3: 72S 73W 74E (protein, listed as Rattus norvegicus)
chain: B1 chain with Y38L, A72S, A73W, F74E
modifications: PEPTIDE (1)...(131) wild-type rat intestinal fatty acid binding protein
B4: 72T 73W 74S (protein, listed as Rattus norvegicus)
chain: B1 chain with Y38L, A72T, A73W, F74S
modifications: PEPTIDE (1)...(131) wild-type rat intestinal fatty acid binding protein
B5: 72V 73L 74W (protein, listed as Rattus norvegicus)
chain: B1 chain with Y38L, A72V, A73L, F74W
modifications: PEPTIDE (1)...(131) wild-type rat intestinal fatty acid binding protein
B6: 72A 73W 74E (protein, listed as Rattus norvegicus)
chain: B1 chain with Y38L, A73W, F74E
modifications: PEPTIDE (1)...(131) wild-type rat intestinal fatty acid binding protein
B7: 72A 73W 74S (protein, listed as Rattus norvegicus)
chain: B1 chain with Y38L, A73W, F74S
modifications: PEPTIDE (1)...(131) wild-type rat intestinal fatty acid binding protein
B8: 73W 72A 74F (protein, listed as Rattus norvegicus)
chain: B1 chain with Y38L, A73W
modifications: PEPTIDE (1)...(131) wild-type rat intestinal fatty acid binding protein
B9: 73W 74I (protein, listed as Rattus norvegicus)
chain: B1 chain with Y38L, A72L, A73W, F74I
modifications: PEPTIDE (1)...(131) wild-type rat intestinal fatty acid binding protein
B10: 72G 73W 74E (protein, listed as Rattus norvegicus)
chain: B1 chain with Y38L, A72G, A73W, F74E
modifications: PEPTIDE (1)...(131) wild-type rat intestinal fatty acid binding protein
B11: 60T 104T 115W 74F 72A (protein, listed as Rattus norvegicus)
chain: B1 chain with Y38L, V60T, A104T, Q115W
modifications: PEPTIDE (1)...(131) wild-type rat intestinal fatty acid binding protein
B12: 21F 78I 102F 72A (protein, listed as Rattus norvegicus)
chain: B1 chain with M21F, Y38L, F74D, L78I, L102F
modifications: PEPTIDE (1)...(131) wild-type rat intestinal fatty acid binding protein
B13: 72S 73W 74S (protein, listed as Rattus norvegicus)
chain: B1 chain with Y38L, A72S, A73W, F74S
modifications: PEPTIDE (1)...(131) wild-type rat intestinal fatty acid binding protein
B14: 73W 74T (protein, listed as Rattus norvegicus)
chain: B1 chain with Y38L, A72L, A73W, F74T
modifications: PEPTIDE (1)...(131) wild-type rat intestinal fatty acid binding protein
B15: L1P17A1: FABP probe, substitutions Y14I L72W vs SEQ ID NO: 2 (protein, listed as Rattus norvegicus)
chain: B1 chain with Y14I, Y38L, A72W, F74D
modifications: PEPTIDE (1)...(131) wild-type rat intestinal fatty acid binding protein
B16: L1P1C3: FABP probe, substitutions Y14M L72W vs SEQ ID NO: 2 (protein, listed as Rattus norvegicus)
chain: B1 chain with Y14M, Y38L, A72W, F74D
modifications: PEPTIDE (1)...(131) wild-type rat intestinal fatty acid binding protein
B17: 18L 73V 72A (protein, listed as Rattus norvegicus)
chain: B1 chain with M18L, Y38L, A73V, F74D
modifications: PEPTIDE (1)...(131) wild-type rat intestinal fatty acid binding protein

Assay: Probe fluorescence ratio response to palmitoleic acid relative to ADIFAB2
Format: binding
Settings: response relative to ADIFAB2
Source text: (§1) In an alternate preferred embodiment, the protein is rI-FABP that has Ala substituted for Leu at position 72 (rI-FABP-L72A) with the resulting probe named ADIFAB2. […] Other probes useful in embodiments of the invention are shown in Tables 1-6 and are also described in U.S. application Ser. No. 11/085,792, filed Mar. 21, 2005 which is incorporated herein by reference. The indicated substitutions are with reference to the ADIFAB protein of SEQ ID NO: 2.
(§2) ADIFAB2 also has an altered spectral response, making it especially useful for measurements of FFAu in blood samples (Apple et al, Clinical Proteomics, (2004) 1:41-44, U.S. patent application Ser. No. 10/670,958). The wavelengths at the maximum intensities emitted by these fluorescently-labeled I-FABP's in the absence of FFA is about 420 to 480 nm. The emission wavelengths at the maximum intensities emitted by these fluorescently-labeled I-FABP's with FFA bound are between about 495 to 580 nm. Experiments typically involve measuring the fluorescence response within both emission maxima or at wavelengths for which the effect of interfering molecules such as hemoglobin can be eliminated as described in U.S. application Ser. No. 10/670958 and PCT/US2004/030521 and the calculation of the ratio ‘R’ of the two fluorescence intensities. The baseline value for this ratio, measured in the absence of analyte, is designated R0.
(§3) The intensity ratio (“R” value) is determined as follows. The ratio is calculated using the following formula: R=Fλ1/Fλ2 wherein, Fλ1 is the measured fluorescence intensities (intensity of sample with probe present minus intensity of sample without probe present) at wavelength 1 and Fλ2 is the measured fluorescence intensities (intensity of sample with probe present minus intensity of sample without probe present) at wavelength 2. Then, for a given probe, ΔR, the difference in R value between the measurement in the presence of the test compound (agent) and in the absence of the test compound (agent), is calculated as follows: ΔR=R+agent−R0 In some embodiments, the ΔR value may then be compared to some reference, for example, an agent with a known affinity for a given probe, by ΔR/ΔRreference. Measurements of fluorescence intensities are obtained using standard techniques.

| Molecule | DR/DR POA |
| --- | --- |
| B1 | 1.514 |
| B2 | 4.867 |
| B3 | 6.109 |
| B4 | 5.826 |
| B5 | 1.710 |
| B6 | 6.615 |
| B7 | 4.864 |
| B8 | 5.256 |
| B9 | 2.697 |
| B10 | 6.069 |
| B11 | 2.511 |
| B12 | 2.788 |
| B13 | 4.656 |
| B14 | 5.818 |

Assay: Probe fluorescence ratio response to arachidonic acid relative to ADIFAB2
Format: binding
Settings: Table 4; Arachidonic acid
How it was run: (§4)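 Each fatty acid's response was expressed relative to ADIFAB2, the rI-FABP-L72A probe, as ΔR/ΔRreference. ΔR is the change in the background-corrected two-wavelength intensity ratio R=Fλ1/Fλ2 from its analyte-free baseline R0. Emission was read near about 420-480 nm for unbound and about 495-580 nm for FFA-bound probe.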

| Molecule | ΔR/DRAΔ2 AA |
| --- | --- |
| B15 | −0.8 |
| B16 | −0.9 |

Same assay, conditions: arachidonic acid; response relative to ADIFAB2

| Molecule | DR/DR AA |
| --- | --- |
| B1 | 0.605 |
| B2 | 3.770 |
| B3 | 3.751 |
| B4 | 4.129 |
| B5 | 0.500 |
| B6 | 4.093 |
| B7 | 3.211 |
| B17 | 0.615 and 0.475 |
| B8 | 3.378 |
| B9 | 0.757 |
| B10 | 4.229 |
| B11 | 0.873 |
| B12 | 4.836 |
| B13 | 3.545 |
| B14 | 1.456 |

Assay: Probe fluorescence ratio response to palmitic acid relative to ADIFAB2
Format: binding
Settings: Table 4
How it was run: as §4

| Molecule | ΔR/DRAΔ2 PA |
| --- | --- |
| B15 | −0.4 |
| B16 | −0.4 |

Same assay, conditions: response relative to ADIFAB2

| Molecule | DR/DR PA |
| --- | --- |
| B1 | 1.397 |
| B2 | 3.333 |
| B3 | 4.210 |
| B4 | 4.155 |
| B5 | 1.276 |
| B6 | 4.937 |
| B7 | 4.039 |
| B8 | 3.264 |
| B9 | 1.884 |
| B10 | 3.944 |
| B11 | 1.920 |
| B12 | 2.383 |
| B13 | 3.536 |
| B14 | 3.883 |

Assay: Probe fluorescence ratio response to oleic acid relative to ADIFAB2
Format: binding
Settings: Table 4
How it was run: as §4

| Molecule | ΔR/DRAΔ2 OA |
| --- | --- |
| B15 | −1.2 |
| B16 | −1.3 |

Same assay, conditions: response relative to ADIFAB2

| Molecule | DR/DR OA |
| --- | --- |
| B1 | 0.646 |
| B2 | 3.490 |
| B3 | 3.212 |
| B4 | 4.177 |
| B5 | 0.648 |
| B6 | 3.277 |
| B7 | 3.155 |
| B8 | 3.255 |
| B9 | 0.912 |
| B10 | 2.755 |
| B11 | 1.149 |
| B12 | 3.312 |
| B13 | 2.863 |
| B14 | 1.902 |

Assay: Probe fluorescence ratio response to linoleic acid relative to ADIFAB2
Format: binding
Settings: Table 4
How it was run: as §4

| Molecule | ΔR/DRAΔ2 LA |
| --- | --- |
| B15 | −1.0 |
| B16 | −1.1 |

Same assay, conditions: response relative to ADIFAB2

| Molecule | DR/DR LA |
| --- | --- |
| B1 | 0.926 |
| B2 | 3.977 |
| B3 | 4.079 |
| B4 | 4.612 |
| B5 | 1.225 |
| B6 | 4.686 |
| B7 | 3.806 |
| B8 | 3.718 |
| B9 | 1.130 |
| B10 | 5.045 |
| B11 | 1.609 |
| B12 | 2.872 |
| B13 | 3.787 |
| B14 | 2.480 |

Assay: Probe fluorescence ratio response to stearic acid relative to ADIFAB2
Format: binding
Settings: response relative to ADIFAB2
Source text: as §1, §2, §3

| Molecule | DR/DR SA |
| --- | --- |
| B1 | 0.362 |
| B2 | 1.255 |
| B3 | 1.285 |
| B4 | 1.620 |
| B5 | 0.348 |
| B6 | 1.289 |
| B7 | 1.095 |
| B17 | 0.359 and 0.427 |
| B8 | 1.485 |
| B9 | 0.423 |
| B10 | 0.955 |
| B11 | 0.633 |
| B12 | 2.367 |
| B13 | 1.106 |
| B14 | 0.726 |

Assay: Probe fluorescence ratio response to linolenic acid relative to ADIFAB2
Format: binding
Settings: Table 4
How it was run: as §4

| Molecule | ΔR/DRAΔ2 LNA |
| --- | --- |
| B15 | −0.9 |
| B16 | −1.0 |

Same assay, conditions: response relative to ADIFAB2

| Molecule | DR/DR LNA |
| --- | --- |
| B1 | 1.166 |
| B2 | 4.220 |
| B3 | 4.799 |
| B4 | 4.826 |
| B5 | 1.209 |
| B6 | 5.422 |
| B7 | 4.401 |
| B8 | 3.875 |
| B9 | 1.325 |
| B10 | 5.501 |
| B11 | 2.017 |
| B12 | 3.006 |
| B13 | 4.147 |
| B14 | 3.286 |
